Experimental data: patent US20040106148A1, “Polypeptides” (priority 2000, published 2004)

B1: pleckstrin-2: GST fusion of mouse pleckstrin-2 residues 1 to 249 (protein, UniProt Q9WV52 1-249, looked up, fragment)
chain: MEDGVLKEGFLVKRGHIVHNWKARWFILRQNTLLYYKLEGGRRVTPPKGRIVLDGCTITCPCLEYENRPLLIKLKTRTSTEYFLEACSREERDSWAFEITGAIHAGQPGKIQQLHILKNSFKLPPHISLHRIVDKMHDTSTGIRPSPNMEQGSTYKKTFLGSSLVDWLISSNFAASRLEAVTLASMLMEENFLRPVGVRSMGAIRSGDLAEQFLDDSTALYTFAESYKKKVSSKEEISLSTMELSGTVV
modifications: GST fusion
B2: evectin-2: GST fusion of human evectin-2 residues 1 to 167 (protein, UniProt Q96CS7 1-167, looked up, fragment)
chain: MAFVKSGWLLRQSTILKRWKKNWFDLWSDGHLIYYDDQTRQNIEDKVHMPMDCINIRTGQECRDTQPPDGKSKDCMLQIVCRDGKTISLCAESTDDCLAWKFTLQDSRTNTAYVGSAVMTDETSVVSSPPPYTAYAAPAPEQAYGYGPYGGAYPPGTQVVYAANGQA
modifications: GST fusion
B3: CT-PH TAPP1: GST fusion of isolated C-terminal PH domain of human TAPP1, residues 95 to 404 (protein, UniProt Q9HB21 95-404, looked up, fragment)
chain: NDQQDLVEWVNVLNKAIKITVPKQSDSQPNSDNLSRHGECGKKQVSYRTDIVGGVPIITPTQKEEVNECGESIDRNNLKRSQSHLPYFTPKPPQDSAVIKAGYCVKQGAVMKNWKRRYFQLDENTIGYFKSELEKEPLRVIPLKEVHKVQECKQSDIMMRDNLFEIVTTSRTFYVQADSPEEMHSWIKAVSGAIVAQRGPGRSASSEHPPGPSESKHAFRPTNAATATSHSTASRSNSLVSTFTMEKRGFYESLAKVKPGNFKVQTVSPREPASKVTEQALLRPQSKNGPQEKDCDLVDLDDASLPVSDV
modifications: C-terminal PH domain GST fusion
B4: C-terminal PH domain of TAPP2: GST fusion of isolated C-terminal PH domain of mouse TAPP2, residues 174 to 425 (protein, UniProt Q9ERS5 174-425, looked up, fragment)
chain: GTHAFLRRSQSYIPTSGCRPSTGPPLIKSGYCVKQGNVRKSWKRRFFALDDFTICYFKCEQDREPLRTIPLKDVLKTHECLVKSGDLLMRDNLFEIITTSRTFYVQADSPEDMHSWIEGIGAAVQALKCHPREPSFSRSISLTRPGSSTLTSAPNSILSRRRPPAEEKRGLCKAPSVASSWQPWTPVPQAEEKPLSVEHAPEDSLFMPNPGESTATGVLASSRVRHRSEPQHPKEKPFVFNLDDENIRTSDV
modifications: C-terminal PH domain GST fusion
B5: NT-PH TAPP1: GST fusion of isolated N-terminal PH domain of human TAPP1, residues 1 to 147 (protein, UniProt Q9HB21 1-147, looked up, fragment)
chain: MPYVDRQNRICGFLDIEENENSGKFLRRYFILDTREDSFVWYMDNPQNLPSGSSRVGAIKLTYISKVSDATKLRPKAEFCFVMNAGMRKYFLQANDQQDLVEWVNVLNKAIKITVPKQSDSQPNSDNLSRHGECGKKQVSYRTDIVG
modifications: N-terminal PH domain GST fusion
B6: N-terminal PH domain of TAPP2: GST fusion of isolated N-terminal PH domain of mouse TAPP2, residues 1 to 131 (protein, UniProt Q9ERS5 1-131, looked up, fragment)
chain: MPYVDRQNRICGFLDIEDNENSGKFLRRYFILDTQANCLLWYMDNPQNLAVGAGAVGSLQLTYISKVSIATPKQKPKTPFCFVINALSQRYFLQANDQKDLKDWVEALNQASKITVPKAGTVPLATEVLKN
modifications: N-terminal PH domain GST fusion
B7: FAPP1: GST fusion of the PH domain of human FAPP1 (residues 1 to 99), PtdIns-Four-phosphate AdaPtor Protein-1, expressed in E. coli (protein, UniProt Q9HB20 1-99, looked up, fragment)
chain: MEGVLYKWTNYLTGWQPRWFVLDNGILSYYDSQDDVCKGSKGSIKMAVCEIKVHSADNTRMELIIPGEQHFYMKAVNAAERQRWLVALGSSKACLTDTR
modifications: PH domain GST fusion
notes: GST fusion of the PH domain of human FAPP1 (residues 1 to 99), PtdIns-Four-phosphate AdaPtor Protein-1, expressed in E. coli
B8: PH domain of mouse centaurin-β2: GST fusion of mouse centaurin-β2 residues 266 to 390, expressed in 293 cells (protein, UniProt Q6ZQK5 266-390, looked up, fragment)
chain: GIVMEGYLFKRASNAFKTWNRRWFSIQNNQLVYQKKFKDSPTVVVEDLRLCTVKHCEDIERRFCFEVVSPTKSCMLQADSEKLRQAWIKAVQTSIATAYREKGDESEKLDKKSSPSTGSLDSGNE
modifications: PH domain GST fusion
notes: GST fusion of mouse centaurin-β2 residues 266 to 390, expressed in 293 cells

Experiments:
Type in all cases: binding
[1] = Protein-lipid overlay, panel of phosphoinositides; details: GST fusion protein; for Interaction with any phosphoinositide tested: FIG. 2 / FIG. 4A; for Binding to any other phosphoinositide (than the one bound): FIG. 2
Protocol: (§1) FIG. 2. Phosphoinositide binding properties of the novel PH domains. The ability of the indicated GST fusion proteins to bind a variety of phosphoinositides was analysed using a protein-lipid overlay. Serial dilutions of the indicated phosphoinositides (100 pmol, 50 pmol, 25 pmol, 12.5 pmol, 6.3 pmol, 3.1 pmol and 1.6 pmol) were spotted onto a nitrocellulose membranes which were then incubated with the purified GST fusion proteins. The membranes were washed and the GST-fusion proteins bound to the membrane by virtue of their interaction with lipid were detected using a GST antibody. A representative of at least 3 separate experiments carried out is shown.
FIG. 4. Comparison of the phosphoinositide binding properties of the N-terminal and C-terminal PH domains of TAPP1 and TAPP2. The ability of wild type and mutant forms of full length (FL) and isolated N-terminal (NT) and C-terminal (CT) PH domains of TAPP1 and TAPP2 GST-fusion proteins to interact with phosphoinositides were analysed using a protein-lipid overlay. Serial dilutions of the indicated phosphoinositides (100 pmol, 50 pmol, 25 pmol, 12.5 pmol, 6.3 pmol, 3.1 pmol and 1.6 pmol) were spotted onto a nitrocellulose membrane which was then incubated with the indicated purified GST fusion proteins. The membranes were washed and the GST-fusion proteins bound to the membrane by virtue of their interactions with lipid were detected using a GST antibody. A representative experiment of three is shown. The isolated N-terminal PH domain of human TAPP1 comprises residues 1 to 147, the isolated C-terminal PH domain of human TAPP1 comprises residues 95 to 404, the isolated N-terminal PH domain of mouse TAPP2 comprises residues 1 to 131 and the isolated C-terminal PH of mouse TAPP2 comprises residues 174 to 425.
Protein-Lipid overlay. To assess the phosphoinositide binding properties of each PH domain, a protein-lipid overlay assay was performed using the GST fusion proteins as described previously. Briefly, 1 μl of lipid solution containing 1-100 pmol of phospholipids dissolved in a mixture of choroform:methanol:water (1:2:0.8) was spotted onto Hybond-C extra membrane and allowed to dry at room temperature for 1 h. The membrane was blocked in 3% (by mass) fatty acid-free BSA in TBST (50 mM Tris/HCl pH 7.5, 150 mM NaCl and 0.1% Tween-20 (by vol) for lh. The membrane was then incubated overnight at 4° C. with gentle agitation in the same solution containing 0.2 μg/ml of the indicated GST fusion protein. The membranes were washed 6 times over 30 min in TBST and then incubated for 1 h with 1/1000 dilution of anti-GST monoclonal antibody (Sigma). The membranes were washed as before, then incubated for 1 h with 1/5000 dilution of anti-mouse-HRP conjugate (Pierce). Finally, the membranes were washed 12 times over 1 h in TBST and the GST-fusion protein bound to the membrane by virtue of its interaction with phospholipid was detected by enhanced chemiluminescence.
We studied the specificity and affinity of interaction of the PH domains for phosphoinositide lipids using either a “protein-lipid overlay” assay (FIG. 2) or the more quantitative surface plasmon resonance based approach (Table 2). For the protein-lipid overlay assay, serial dilutions of phosphoinositides were spotted on to a nitrocellulose membrane and incubated with the indicated GST PH domain fusion protein or GST-DAPP1 (that binds PtdIns(3,4,5)P3 and PtdIns(3,4)P2 [4]), GST-GRP1 (that binds only PtdIns(3,4,5)P3 [8]) and GST-phospholipase Cδ1 (that binds only PtdIns(4,5)P2 (Ferguson et al (1995) Cell 83, 1037-1046)) as controls. The membranes were then washed and immunoblotted with a GST antibody to detect GST fusion proteins bound to the membrane by virtue of their interaction with lipid. […]

Protein-lipid overlay [2] = details: GST fusion protein, dipalmitoyl lipid spotted on membrane, FIG. 2
Protocol: as §1
(§2) Protein-Lipid overlay. To assess the phosphoinositide binding properties of each PH domain, a protein-lipid overlay assay was performed using the GST fusion proteins as described previously. […]
(§3) We studied the specificity and affinity of interaction of the PH domains for phosphoinositide lipids using either a “protein-lipid overlay” assay (FIG. 2) or the more quantitative surface plasmon resonance based approach (Table 2). […] For the surface plasmon resonance based assay, the apparent Kd values of the GST PH domain fusion proteins resulting from their interaction with a supported lipid monolayer containing a low mole fraction of phosphoinositide, was determined (Table 2).

Protein-lipid overlay [3] = details: GST fusion protein, lipid spotted 1.6-100 pmol on membrane, FIG. 2 / FIG. 4
Protocol: as §1
FIG. 4. […] The ability of wild type and mutant forms of full length (FL) and isolated N-terminal (NT) and C-terminal (CT) PH domains of TAPP1 and TAPP2 GST-fusion proteins to interact with phosphoinositides were analysed using a protein-lipid overlay. […] The membranes were washed and the GST-fusion proteins bound to the membrane by virtue of their interactions with lipid were detected using a GST antibody. […]
We studied the specificity and affinity of interaction of the PH domains for phosphoinositide lipids using either a “protein-lipid overlay” assay (FIG. 2) or the more quantitative surface plasmon resonance based approach (Table 2). […]

Protein-lipid overlay [4] = details: GST fusion protein, lipid spotted on membrane, FIG. 2 / FIG. 11
Protocol: as §1
Methods used are equivalent to those specified in the legend to FIG. 2.
as §2, §3

| Molecule | Interaction with any phosphoinositide tested [1] | Binding to any other phosphoinositide (than the one bound) [1] | also measured |
| --- | --- | --- | --- |
| B1 | interacted with several phosphoinositides |  |  |
| B2 |  | interacted more weakly |  |
| B3 |  | did not bind | Interaction with PtdIns(3,4,5)P3 (Protein-lipid overlay [2]): did not bind; Interaction with PtdIns(3,4)P2 (Protein-lipid overlay [3]): interacted with PtdIns(3,4)P2 |
| B4 |  | did not bind | Interaction with PtdIns(3,4,5)P3 (Protein-lipid overlay [2]): did not bind; Interaction with PtdIns(3,4)P2 (Protein-lipid overlay [3]): interacted with PtdIns(3,4)P2 |
| B5 | failed to interact |  |  |
| B6 | failed to interact |  |  |
| B7 |  | did not bind | Interaction with PtdIns4P (Protein-lipid overlay [4]): high affinity |
| B8 |  | did not bind |  |
